Reference: patent publication US11673947B2, “Target tissue-specific antigen-binding molecule” (Chugai Seiyaku Kabushiki Kaisha, priority 2012, dated 2023)

B1: 6RRLSA1-6_037: clone with antigen-binding activity to human IL-6 receptor in the absence of ATP and adenosine (antibody, V domains shown)
VH: EVQLVESGGDLVKPGGGLRLSCAASGFTFSTYTMHWVRQAPGKGLEWVSSISSRSGHRHYADSVKGRFTISRDNAKNSLYLQMNSLRAEDTAVYYCARYGKKGNRNWVFDYWGQGTLVTVSS
VL: QSALTQPPSASGSPGQTVTISCTGTSTDVGGYNYVSWYQQHPGKAPKLMIYSTSKRPSGVPDRFSGSKSGNTASLTVSGLQAEDEADYFCSTTTYAKNPVFGGGTKLTVL
B2: 6RRLSA1-6_045: clone with antigen-binding activity to human IL-6 receptor in the absence of ATP and adenosine (antibody, V domains shown)
VH: EVQLVESGGDLVKPGGGLRLSCAASGFTFSGYTMHWVRQAPGKGLEWVSSISSRSNHRSYADSVKGRFTISRDNAKNSLYLQMNSLRAEDTAVYYCARFGKRFDRNWVFDYWGQGTLVTVSS
VL: QSALTQPPSASGSPGQTVTISCTGTSTDVGTYNYVSWYQQHPGKAPKLMIYKTSKRPSGVPDRFSGSKSGNTASLTVSGLQAEDEADYFCSSRRYRRSLSFGGGTKLTVL
B3: 6RNMSC1-3_G02: antibody that binds to hIL-6R in the presence of ATP; SEQ ID NOs: 88 and 89 (antibody, listed as Homo sapiens, V domains shown)
VH: EVQLVQSGGDLVKPGGSLRLSCAASGFTFSNYAMHWVRQAPGKGLEWVAVVSYDGSNKYYADSVKGRFTISRDNSKNTLYLQMNSLRAEDTAVYYCARLVPSSGYPGRFDPWGQGTLVTVSS
VL: NIQMTQSPSSLSASVGDRVTITCRASQSISSSLNWYQQIPGKAPKLLIYAASSLQSGVPSRFSGSGSGTDFTLTISSLQPEDFASYYCQQSYSAWTFGQGTKVEIK

Key:
human IL6 receptor = molecular target: T1, human IL6 receptor (Homo sapiens, UniProt P08887); assay: Phage ELISA, binding to human IL6 receptor in the presence or absence of adenosine and/or ATP; details: with or without 10 mM adenosine and ATP
T1 sequence (P08887 20-357 limits assumed): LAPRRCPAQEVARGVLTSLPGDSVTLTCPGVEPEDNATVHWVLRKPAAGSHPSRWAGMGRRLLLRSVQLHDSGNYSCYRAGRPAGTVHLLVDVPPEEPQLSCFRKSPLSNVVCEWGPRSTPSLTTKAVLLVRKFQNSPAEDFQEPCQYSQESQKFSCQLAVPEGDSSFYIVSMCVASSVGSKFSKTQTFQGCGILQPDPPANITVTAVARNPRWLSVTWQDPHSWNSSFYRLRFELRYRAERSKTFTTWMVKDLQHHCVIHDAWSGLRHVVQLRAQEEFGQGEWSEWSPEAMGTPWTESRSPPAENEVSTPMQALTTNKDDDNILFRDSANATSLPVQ
Method: Phage-containing culture supernatants were collected according to a conventional method (Methods Mol. Biol. (2002) 178, 133-145) from single colonies of E. coli obtained by the method described above. The collected culture supernatants were treated by ultrafiltration using NucleoFast 96 (MACHERY-NAGEL). 100 μl of the culture supernatants were added to each well of NucleoFast 96, and it was centrifuged (4500 g for 45 minutes) to remove flow through. After addition of 100 μl of H2O, the NucleoFast 96 was washed by centrifugation (4500 g for 30 minutes). Finally, 100 μl of TBS was added, and the NucleoFast 96 was allowed to stand for five minutes at room temperature. A phage suspension was collected from the supernatant in each well of the NucleoFast 96.
The purified phages, to which TBS or (adenosine+ATP)/TBS was added, were subjected to ELISA by the following procedure. A StreptaWell 96 microtiter plate (Roche) was coated overnight with 100 μl of TBS containing biotin-labeled antigen. […] Then, the developed color was assessed by measuring absorbance at 450 nm. […]
First, a StreptaWell 96 microtiter plate (Roche) was coated at room temperature for one hour or more with 100 μl of TBS containing a biotin-labeled antigen. […] Then, the developed color was assessed by measuring absorbance at 450 nm (FIGS. 25, 26, and 27). […]

hIL-6R [1] = molecular target: T2, hIL-6R (Homo sapiens, UniProt P08887); assay: IgG ELISA, binding to hIL-6R in the presence or absence of each small molecule, amino acid or amino acid metabolite
T2 sequence (P08887 20-355 limits assumed): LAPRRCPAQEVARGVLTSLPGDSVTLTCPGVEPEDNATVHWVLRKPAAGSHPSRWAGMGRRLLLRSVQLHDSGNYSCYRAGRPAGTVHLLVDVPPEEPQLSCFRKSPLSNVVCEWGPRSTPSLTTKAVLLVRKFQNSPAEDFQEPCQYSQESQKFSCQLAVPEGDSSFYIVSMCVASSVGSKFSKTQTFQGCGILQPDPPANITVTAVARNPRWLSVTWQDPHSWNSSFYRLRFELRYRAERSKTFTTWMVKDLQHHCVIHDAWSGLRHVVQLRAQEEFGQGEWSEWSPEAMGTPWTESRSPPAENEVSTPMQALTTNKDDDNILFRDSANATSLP
Method: Three types of antibodies obtained: 6RNMSC1-2_F02 and 6RNMSC1-3_G02, and GC413 were subjected to ELISA under the nine conditions described in Table 3. Meanwhile, each small molecule was appropriately prepared at the concentrations shown in Table 3 using the buffers indicated in Table 19. The antigen used was biotin-labeled hIL-6R.
First, a StreptaWell 96 microtiter plate (Roche) was coated at room temperature for one hour or more with 100 μl of PBS containing biotin-labeled hIL-6R. After washing with Wash buffer to remove unbound biotin-labeled hIL-6R from the plate, each well was blocked for one hour or more with 250 μl of Blocking Buffer. After Blocking Buffer was removed from each well, the purified IgGs were prepared to 2.5 μg/ml in Sample Buffer containing small molecules at the final concentrations shown in Table 3, and each was aliquoted at 100 μl into the plate. The plate was allowed to stand at room temperature for one hour to allow binding of each IgG to biotin-labeled hIL-6R in each well. After washing with Wash Buffer containing small molecules at the final concentrations shown in Table 3, an HRP-conjugated anti-human IgG antibody (BIOSOURCE) diluted with Sample Buffer containing the same small molecules was added to each well. The plate was incubated for one hour. Following wash with Wash Buffer containing each small molecule, the TMB single solution (ZYMED) was added to each well. The chromogenic reaction in the solution of each well was terminated by adding sulfuric acid. Then, the developed color was assessed by measuring absorbance at 450 nm.
6RNMSC1-2_F02 described in Example 14, which has antigen-binding activity in the presence of kynurenine, and negative control GC413 were subjected to ELISA under the seven conditions described in Table 18. Meanwhile, each small molecule was appropriately prepared at the concentrations shown in Table 18 using the buffers indicated in Table 4. The antigen used was biotin-labeled hIL-6R. ELISA was carried out using the method described in Example 11.

hIL-6R [2] = molecular target: T2, hIL-6R; assay: Phage ELISA, binding to hIL-6R in the presence or absence of SC; details: in the presence of SC
Method: Culture supernatants containing phages were collected according to a conventional method (Methods Mol. Biol. (2002) 178, 133-145) from single colonies of E. coli obtained as described in (14-2). Phages purified by the method described in (2-4) were subjected to ELISA by the following procedure. A StreptaWell 96 microtiter plate (Roche) was coated overnight with 100 μl of TBS containing biotin-labeled hIL-6R. After biotin-labeled hIL-6R was removed by washing each well of the plate with TBST, the wells were blocked with 250 μl of 2% skim milk/TBS for one hour or more. 2% skim milk/TBS was removed, and then the prepared, purified phages were added to each well. The plate was allowed to stand at room temperature for one hour to allow binding of antibody-displaying phages to biotin-labeled hIL-6R in each well in the presence or absence of SC. After washing with TBST or SC/TBST, an HRP-conjugated anti-M13 antibody (Amersham Pharmacia Biotech) diluted with TBS or SC/TBS was added to each well. The plate was incubated for one hour. Following wash with TBST or SC/TBST, the TMB single solution (ZYMED) was added to each well. The chromogenic reaction in the solution of each well was terminated by adding sulfuric acid. Then, the developed color was assessed by measuring absorbance at 450 nm.

| antigen-binding activity to human IL-6 receptor in the absence of ATP and adenosine (human IL6 receptor) | absorbance under condition 1 compared to condition 8 (hIL-6R [1]; condition 1 (1 mM ATP-Na)) | absorbance under condition 9 as compared to condition 8 (hIL-6R [1]; condition 9 (in the absence of small molecules) vs condition 8 (complete small molecule cocktail solution)) | absorbance under other conditions (hIL-6R [1]; remaining conditions of Table 3) | binding activity to hIL-6R in the presence of a small molecule cocktail (phage ELISA) (hIL-6R [2]) | Molecule |
| --- | --- | --- | --- | --- | --- |
| had an antigen-binding activity |  |  |  |  | B1 |
| had an antigen-binding activity |  |  |  |  | B2 |
|  | the same | markedly lower | markedly lower | have binding activity | B3 |
